Substrate: O=P(O)(O)O[C@H]1O[C@H](CO)[C@@H](O)[C@H](O)[C@H]1O
Assay: HPAEC-PAD, direct detection of hexose phosphates
Format: biochemical, Arabidopsis thaliana
Conditions: 20 mM PBS pH 7.0, 10 mM MgSO4, 20 µM glucose-1,6-bisphosphate, 30 °C
Text: HPAEC-PAD, direct detection of hexose phosphates on AtAGM

B1: AtAGM (Arabidopsis thaliana) (protein)
chain: MDEIQIASILKSSELFPIPQGVKLSYGTAGFRGDAKLLESTVYRVGILSALRSLKLGSATVGLMITASHNKVSDNGIKVSDPSGFMLSQEWEPFADQIANASSPEELVSLIRKFMEKEEIAIGENNKGAEVWLGRDTRPSGESLLRAGEIGVGSILGSVAIDIGILTTPQLHWMVRAKNKGLKATENDYFENLSTSFRCLIDLIPSSGNDKLEISKLLVDGANGVGGQKIEKLRGSLSNLDVEIRNTGRDGGVLNEGVGADFVQKEKVLPVGFGFKDVGMRCASLDGDADRLVYFYIPSDSSEKVELLDGDKILSLFALFIKEQLNALEDDEERKQSRLGVVQTAYANGASTDYLKHLGLDVVFAKTGVKHLHEKAAEFDIGIYFEANGHGTILFSESFLSWLVSKQKDLTAKGQGGSEEHKAVSRLMAVSNLINQAVGDALSGVLLVEVILQHLGWSIEKWNELYKDLPSRQIKVEVPDRTAVVTTSEETEALRPMGIQDAINSEIKKYSRGRAFIRPSGTEDVVRVYAEASTQEDADSLANSVAQLVKSFLGSS
- Km: 679.18 ± 156.40 µmol/L
- Vmax: 0.137 µmol/min
- kcat: 40.4 s⁻¹
